Source: the supplement of paper PMC10201428
± gives the standard deviation of the averaged measurements.

Experiments:
[1] = tested on: VchCAST RNA-guided transposition machinery (E. coli BL21(DE3) host, lacZ target); test: relative integration efficiency (T-RL orientation) vs wild-type transposon end (log2 (normalized fold change)); transposon end mutated: right end (5 bp flank + 75 bp right end); higher = more efficient transposition
Method in brief: (§1)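 Barcode abundances in input plasmids and in genomic integration junctions were obtained by PCR amplification and Illumina sequencing. These came from E. coli BL21(DE3) co-transformed with a T7-driven effector plasmid and a pUC57 donor carrying 1549 left-end or 1849 right-end transposon variants, then plated with 0.1 mM IPTG at 37°C for 18 h. Relative integration efficiency is the output/input fold change, normalised to reference barcodes and log-transformed.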

[2] = tested on: VchCAST RNA-guided transposition machinery (E. coli BL21(DE3) host, lacZ target); test: relative integration efficiency (T-LR orientation) vs wild-type transposon end (log2 (normalized fold change)); transposon end mutated: right end (5 bp flank + 75 bp right end); higher = more efficient transposition
Method in brief: as §1

| Sequence | relative integration efficiency (log2) [1] | relative integration efficiency (log2) [2] |
| --- | --- | --- |
| ACATTTGTTCATACAACCCTAAAATGATAATTACACCCATAAATTCATCATTATCACCCCCAATTTAACTATAACGCTCTGATCATAGTCAGACCAACATTGCTACGACCCGTATTCGCACCGACAC | -5.29 ± 0.22 | -3.65 ± 0.85 |
| ACATTTGTTGATACAACCATAAGTTGATATTTTCAACCATAAAATGATAATTATCACAACCATAAAATGATAATTACTCTGATCATAGTCAGACCAACATTGCTACGACCCGTATTCGCACCGACAC | -0.00738 ± 0.052 | -0.774 ± 0.049 |
| ACATTTGTTGATACACCCATAAATTGATAATTACACCCATAAATTGATATTGCTCACAACCATAAAATGATAATTACTCTGATCATAGTCAGACCAACATTGCTACGACCCGTATTCGCACCGACAC | -0.918 ± 0.33 | -0.204 ± 0.23 |
| ACATTTGTTCATACAACCATAAAACGATAATTACACCCATAAATTGATAATTATCACACCCAATTTAACTATAACGCTCTGATCATAGTCAGACCAACATTGCTACGACCCGTATTCGCACCGACAC | -0.611 ± 0.28 | 1.42 ± 0.13 |
| ACATTTGTTGATACAACCATAAAATGATAATTACACCCATAAATTGATAATTATCACACCCATAAATTGATATTGCCTCTGATAACTTCGTATAGCATACATTATACGAAGTTATTCGCACCGACAC | -3.13 ± 0.076 | 2.48 ± 0.26 |
| ACATTTGTTCATACAACCATAAAATGATAATTACCACCCCTAAATTGATAATTATCACACCCATTTAACTATAACGCTCTGATCATAGTCAGACCAACATTGCTACGACCCGTATTCGCACCGACAC | -4.21 ± 0.08 | -2.87 ± 0.85 |
| ACATTTGTTGATACAACCATAAAATGATAATTACACGGATAAATTGATAATTATCACACCCATAAATTGATATTGCCTCTGATCATAGTCAGACCAACATTGCTACGACCCGTATTCGCACCGACAC | -0.265 ± 0.13 | -0.469 ± 0.21 |
| ACATTTGTTGATACAACCATAAAATGATTATTACACCCATAAATTGATAATGATGACACCGAATTTAACTATAACGCTCTGATCATAGTCAGACCAACATTGCTACGACCCGTATTCGCACCGACAC | -1.31 ± 0.35 | 2.38 ± 0.12 |
| ACATTTGTTGATACAACCATAAAAGGATCATTACACCCATCAATTGATAATTATCCCACCCCATTTAACTATAACGCTCTGATCATAGTCAGACCAACATTGCTACGACCCGTATTCGCACCGACAC | -3.29 ± 0.28 | -0.014 ± 0.4 |
| ACATTTGTTGATACAACCATTAAATAATAATTCCACCCATAAATTGATAATTATCACACCCAATTTAACTATAACGCTCTGATCATAGTCAGACCAACATTGCTACGACCCGTATTCGCACCGACAC | -1.71 ± 0.2 | 1.55 ± 0.071 |
| ACATTTGTTGATACCACCATCAAATGATAATTCCACCCATAAATTGATAATTATCACACCCAATTTAACTATAACGCTCTGATCATAGTCAGACCAACATTGCTACGACCCGTATTCGCACCGACAC | -2.05 ± 0.11 | 1.36 ± 0.27 |
| ACATTTGTTGATACCACCATAAAATGATAATTACACCCCTAAATTGATAATTATCACACCCAATTTAACTATAACGCTCTGATCATAGTCAGACCAACATTGCTACGACCCGTATTCGCACCGACAC | -2.41 ± 0.33 | 0.973 ± 0.2 |
| ACATTTGTTGATACAACCATAAAATGATAATTACACCCATAAATTGATAATTATCACACCCATAAATTGATATTGCTCTGATCATAGTCAGACCAACATTGCTACGACCCGTATTCGCACCGACACT | 0.126 ± 0.019 | -0.11 ± 0.21 |
| ACATTTGTTGATACAACCATAAAATGATAATTACACCCAATAATTGATAATTATCACACCCATAAATTGATATTGCCTCTGATCATAGTCAGACCAACATTGCTACGACCCGTATTCGCACCGACAC | -0.277 ± 0.02 | -0.381 ± 0.18 |
| ACATTTGTTGATACACCCATAAATTGATATTGCCAACCATAAAATGATAATTATCACACCCATAAATTGATAATTACTCTGATCATAGTCAGACCAACATTGCTACGACCCGTATTCGCACCGACAC | -0.642 ± 0.2 | -0.568 ± 0.82 |
| ACATTTGTTGATACAACCATAAAATGATAATTCCACCCCTACATTGATAATTATCACACCCAATTTAACTATAACGCTCTGATCATAGTCAGACCAACATTGCTACGACCCGTATTCGCACCGACAC | -3.18 ± 0.52 | 0.35 ± 0.091 |
| ACATTTGTTGATACAACCATAAGTTGATATTTTCAACCATAAAGTGATATTTATCACACCCATAAATTGATATTGCCTCTGATCATAGTCAGACCAACATTGCTACGACCCGTATTCGCACCGACAC | -0.032 ± 0.064 | -0.507 ± 0.46 |
| ACATTTGTTCATACAACCATAAAATGATAATTACACCCATAAATGGATCATTATCACACCCAATTTAACTATAACGCTCTGATCATAGTCAGACCAACATTGCTACGACCCGTATTCGCACCGACAC | -1.79 ± 0.18 | -0.503 ± 0.054 |

| Sequence | relative integration efficiency (log2) [1] | relative integration efficiency (log2) [2] |
| --- | --- | --- |
| ACATTTGTTGATACAACCATAAAATGATAATTACACCCATAAATTGATACGTATCACACCCATAAATTGATATTGCCTCTGATCATAGTCAGACCAACATTGCTACGACCCGTATTCGCACCGACAC | -0.704 ± 0.012 | -0.44 ± 0.48 |
| ACATTTGTTGATACAACCATAAAATGATAATTACACCCATAAATTGATAAGGATCACACCCATAAATTGATATTGCCTCTGATCATAGTCAGACCAACATTGCTACGACCCGTATTCGCACCGACAC | -0.665 ± 0.083 | -0.0336 ± 0.22 |
| ACATGGGTTGATACAACCATAAAATGATAATTACACCCATAAATTGATAATTATCACACCCATAAATTGATATTGCCTCTGATCATAGTCAGACCAACATTGCTACGACCCGTATTCGCACCGACAC | -6.44 ± 0.3 | -5.51 ± 0.64 |
| ACATTTGTTGATACAACCATATATTGATATCTCCAACCATAAGTTGATATTTTTCACAACCATAAAATGATAATTACTCTGATCATAGTCAGACCAACATTGCTACGACCCGTATTCGCACCGACAC | -0.279 ± 0.084 | -0.448 ± 0.2 |
| ACATTTGTTGATACAACCATAAAATGATTATTACACCCATTAATTGATAATTATCACACCCAATTTAACTATAACGCTCTGATCATAGTCAGACCAACATTGCTACGACCCGTATTCGCACCGACAC | -1.4 ± 0.34 | 2.31 ± 0.036 |
| ACATTTGTCGATACAACCATAAAATGATAATTACCACCCCTACATTGATAATTATCACACCCATTTAACTATAACGCTCTGATCATAGTCAGACCAACATTGCTACGACCCGTATTCGCACCGACAC | -3.06 ± 0.23 | -0.393 ± 0.058 |
| ACATTTGTTGATACAACCAATAAAAGATTATTACCCCCATTAATTGATAATGATGACACCGAATTTAACTATAACGCTCTGATCATAGTCAGACCAACATTGCTACGACCCGTATTCGCACCGACAC | -4.62 ± 0.48 | -1.84 ± 0.29 |
| ACATTTGTTGATACAACCATATATTGATATCTCCAACCATAAGTTGATATTTTTCACACCCATAAATTGATAATTACTCTGATCATAGTCAGACCAACATTGCTACGACCCGTATTCGCACCGACAC | -0.491 ± 0.17 | 0.109 ± 0.44 |
| ACATTTGTTGATACAACCATATATTGATATCTCCACCCATAAATTGATAATTATCACACCCATAAATTGATATTGCCTCTGATCATAGTCAGACCAACATTGCTACGACCCGTATTCGCACCGACAC | -0.348 ± 0.03 | -0.187 ± 0.16 |
| ACATTTGTTCTATCAACCATAAAATGATAATTACACCCATAAATTGATAATTATCACACCCATAAATTGATATTGCCTCTGATCATAGTCAGACCAACATTGCTACGACCCGTATTCGCACCGACAC | -1.53 ± 0.17 | -4.42 ± 0.25 |
| ACATTTGTCGATACAACCATAAAACGATAATTACACCCATAAATGGATCATTATCACACCCAATTTAACTATAACGCTCTGATCATAGTCAGACCAACATTGCTACGACCCGTATTCGCACCGACAC | -1.91 ± 0.19 | 0.741 ± 0.05 |
| ACATTTGTTGATACACCCATAAATTGATATTGCCAACCATAAGTTGATATTTTTCACAACCATAAAATGATAATTACTCTGATCATAGTCAGACCAACATTGCTACGACCCGTATTCGCACCGACAC | -0.413 ± 0.23 | -0.0638 ± 0.3 |
| ACATTTGTTGATACAACCATATTTAGATAATTACACCCATATTAAGATAATTATCACACCCATATTAAGATATTGCCTCTGATCATAGTCAGACCAACATTGCTACGACCCGTATTCGCACCGACAC | -2.27 ± 0.31 | -1.1 ± 0.36 |
| ACATTTGTTGATACAACCATAAAATGATAATTAATAATTATTTATAATCAGCAACTTAACCACAAACACCCATAAATTGATAATTATCAACAAACGCCCGGTCGCGGTACTCTGATCATAGTCAGAC | -3.5 ± 0.52 | -0.33 ± 0.047 |
| ACATTTGTTCATCCAACCATAAAATGATAATTACACCCATAAATTGATCATTATCACACCCAATTTAACTATAACGCTCTGATCATAGTCAGACCAACATTGCTACGACCCGTATTCGCACCGACAC | -2.44 ± 0.32 | 0.101 ± 0.12 |
| ACATTTGTTGATAGAACCATAAAATGATAATTAGACCCATAAATTGATAATTATCAGACCCATAAATTGATATTGCCTCTGATCATAGTCAGACCAACATTGCTACGACCCGTATTCGCACCGACAC | -1.64 ± 0.2 | -0.628 ± 0.11 |
| ACATTGGTGGATACAACCATAAAATGATAATTACACCCATAAATGGATCATTATCACACCCAATTTAACTATAACGCTCTGATCATAGTCAGACCAACATTGCTACGACCCGTATTCGCACCGACAC | -7.25 ± 0.2 | -6.75 ± 1 |
